These binders were tested against T1, SARS-CoV-2 receptor-binding domain (WT RBD; S protein residues 319-539) (SARS-CoV-2, UniProt P0DTC2 319-539) (assay: BLI (Octet Red), IgG on protein A biosensor, WT RBD in solution, 1:1 fit).
T1 construct: also called SARS-COV-2 RBD

Binder	Kd [nM]
C888 (antibody, V domains shown) VH: EVQLVESGGGLVQPGGSLRLSCAASGFTVSSNYMSWVRQAPGKGLEWVSVIYSGGSAYYADSVKGRFTISRDNSKNTLYLQMNSLRAEDTAVYYCARDLRDQDGYSYGAFDYWGQGTLVTVSS VL: QSALTQPASVSGSPGQSITISCTGTSSDVGGYNYVSWYQQHPGKAPKLMIYDVSNRPSGVSNRFSGSKSGNTASLTISGLQAEDEADYYCSSYTSSSSWVFGGGTKLTVL	1390
C1009 (antibody, V domains shown) VH: EVQLVESGGGLLQPGGSLRLSCAASGFSVSSNYMTWVRQAPGKGLEWVAAIYSGDSTYYVDSVKGRFIISRDNSKNTVYLHLSSLRAEDTAVYYCARLVGYDFRSGSDGGYFDYWGHGTLVTVSS VL: QSALTQPASVSGSPGQSITISCTGTSSDIGNYNLVSWYQQHPGKAPKLMIYDVSKRPSGVSNRFSGSKSGNTASLTISGLQAEDETDYYCCSYAGSSTWVFGGGTKLTVL	2.13
C1008 (antibody, V domains shown) VH: EVQLVESGGGLIQPGGSLRLSCAASGFTVSSNYMSWVRQAPGKGLEWVSVIYSGGSTYYADSVKGRFTISRDNSKNTLYLQMNSLRAEDTAVYYCARVVGYDFWSGYDGGYFDYWGQGTLVTVSS VL: QSALTQPASVSGSPGQSITISCTGTSSDVGSYNLVSWYQQHPGKAPKLMIYEVSKRPSGVSNRFSGSKSGNTASLTISGLQAEDEADYYCCSYAGSSTWVFGGGTKLTVL	500
C953 (antibody, V domains shown) VH: QVQLVQSGAEVKKPGSSVKVSCKASGGTFSSYAISWVRQAPGQGLEWMGRIIPILGIANYAQKFQGRVTITADKSTSTAYMELSSLRSEDTAVYYCARDSEYSSSWYSRGYYGMDVWGQGTTVTVSS VL: not shown	164
C871 (antibody, V domains shown) VH: EVQLVESGGGLIQTGGSLKLSCAASGFIVTNNYMSWVRQAPGKGLEWVSVIYSGGTTYYADSVKGRFTISRDISKNTLYLQMNSLKAEDTAVYYCAREGDVEGISDSWSGYSRDRYYFDHWGQGTLVTVSS VL: QSALTQPASVSGSPGQSITISCTGTSSDVGGYNYVSWYQQHPGKAPKLMIYDVSNRPPTISNRFSGSKSGNTASLIISGLQPEDEADYYCSSFTSNNTRVFGTGTKVTVL	3.7
C951 (antibody, V domains shown) VH: QVQLQESGPRLVKPSGTLSLTCAVSGGSISTTNWWSWVRQPPGKGLEWIGEIHHSGNTNYNPSLKSRVTISVDRSKNQFSLKLSSVTAADTAVYFCARDGGRPGDPFDIWGQGTMVTVSS VL: QSALTQPASVSGSPGQSITISCTGTSSDVGGYNYVSWYQQHPGKAPNLMIYDVSDRPSGVSNRFSGSKSGNTASLTISGLQAEDEADYYCNSFTSNSTRVFGTGTKVTV	3.03
C853 (antibody, V domains shown) VH: QVQLQESGPGLVKASQTLSLTCTVSGGSFRSGGYYYNWIRQHPGKGLEWIGYIFYTGVTYYNPSLKSRVSISVDTSKNQLSLNLTSVTAADTAVYYCARGSYSDYNGGWDYWGRGTLVTVS VL: QSALTQPPSASGSPGQSVTISCIGTSSDVGGYNYVSWYQHHPGKAPKLIIYEVSKRPSGVPDRFSGSKSGNTASLTVSGLQADDEADYYCSSYAGSNNWVFGGGTKLTV	5.88
C881 (antibody, V domains shown) VH: EVQLVESGGGLIQPGGSLRLSCAVSGVAVSTNYMSWVRQAPGQGLEWVSTIYSGDTTYYSDSVKGRFTISRDNSKNTFYLQMNSLRVPDTAVYYCARLGGVFNGFNGSFDYWGQGTLVTVS VL: QSALTQPASVSGSPGQSITISCIGTSSDFENYNLVSWYQQHPGKAPKVMIYEDTKRPSGVSNRFSGSKSANTASLTISGLQAEDEAEYYCCSYAGASTWVFGGGTRVTVV	5.26
C1010 (antibody, V domains shown) VH: QVQLVESGGGVVQPGRSLRLSCAASGFTFSSYAMHWVRQAPGKGLEWVAVISYDGSNKYYADSVKGRFTISRDNSKNTLYLQMNSLRAEDTAVYYCAKKGQPYCGGDCYFYYFDYWGQGTLVTVSS VL: DIQMTQSPSSLSASLGDRVTITCQASQDISNYLNWYQQKPGKAPKLLIYDASNLETGVPSRFSGSGSGTDFTFTISSLQPEDIATYYCQQYDNLPPITFGQGTRLEIK	62.5
C1011 (antibody, V domains shown) VH: QVQLVESGGGVVQPGRSLRLSCAVSGFTFSHYAMHWVRQAPGKGLEWVAVISYDGADKYYADSVRGRFTIARDNSKNTLFLQMSSLRPEDTAVYYCAKKGQPYCGGDCHFYYLDYWGQGTLVTVSS VL: DIQMTQSPSSLSASVGDRVTITCQASQDISNHLNWYQQKPGKAPKLLIYDASNLETGVPSRFSGSGSGTDFTFTISSLQAEDIATYYCQQYDNLPPITFGQGTRLEIK	0.0833
C1002 (antibody, V domains shown) VH: EVQLVESGGGLVQPGGSLRLSCAASEFIVSSNYMTWVRQAPGKGLEWVSIMYPGGSTFYADSVKGRFTISRDNSKNTLYLQINRLRAEDTAVYYCARDIAGRLDYWGQGTLVTVSS VL: DIQMTQSPSSLSASVGDRVTITCQASQDINNYLNWYQQKPGKAPKLLIYDASNLETGVPSRFSGSGSGTDFSFTISSLQPEDIATYYCQQYDNLSRLTFGGGTKVEIK	0.00196
C934 (antibody, V domains shown) VH: QVQLVQSGAEVKKPGASVKVSCKASGYTFTDYYIHWVRQAPGQGLEWMGWINPNSGGTNYAQKFQGRVTMTRDTSISTAYMDLSRLRSDDTAVYYCARDVIITMGRGVVFRMDVWGQGTTVTVSS VL: not shown	100
C1027 (antibody, V domains shown) VH: EVQLVESGGGLVQPGGSLRLSCAASGFIVTTNYMSWVRQAPGKGLEWVSLIYPGGSTFYADSVEGRFTISRDNSKNTLYLQVNSLRVEDTAVYYCARDTFGRGDDHWGQGTLVTVSS VL: DIQMTQSPSSLSASVGDRVTITCQASQDINIYLNWYQQRPGKAPKLLIYDASNLQTGVPSRFSGSGSGTDFTITISSLQPEDIATYYCQQYDNLPRSFGQGTKLEI	0.0114
C952 (antibody, V domains shown) VH: EVQLVQSGAEVKKPGESLTISCKDSGNSFTIYWIGWVRQMPGKGLEWMGMIYPGDSGTRYSPSFEGQVTISADESINTAYLQWRSLKASDTAMYYCVRGIAVDWYFDLWGRGTLVTVSS VL: QSVLTQPPSVSGAPGQRVTISCTGSSSNIGAGFDVHWYQQLPGTAPKLLIYGNNNRPSGVPDRFSGSKSATSASLAITGLQAEDEADYYCQSSDSSLSGLYVFGTGTNVIV	0.172
C954 (antibody, V domains shown) VH: QVQLVQSGAEVKKPGSSVKVSCKASGDTFTNYAFSWMRQAPGQGLEWMGRIIPILGIVKYSQKFQDRVRISADKSTSTAYMDLSSLRSEDTAMYYCARDSEFSTSWFSRGYHGMDVWGQGTTVTVSS VL: DIVMTQSPLSLPVTPGEPASISCRSSQSLLHGDGYNYLDWYLQKPGQSPHLLIYLGSNRTSGVSDRFSGSGSGTDFTLKISRVEAEDVGVYYCMQALQTPPTFGGGTKVEIK	7.14
C1003 (antibody, V domains shown) VH: QVQLVESGGGVVQPGRSLRLSCAASGFAFSSYGMNWVRQAPGKGLEWVTTVSSDGNVNYYIDSVKGRFTISRDNSKNTLYLQMNSLRGDDTAVYYCAKGPRFGWSYRGGSGFDIWGQGTMVTVSS VL: DIQMTQSPSSLSASVGDRVTITCQASQDISNYLNWYQQKPGKAPKLLIYDASNLETGVPSRFSGSGSGTDFTFTITSLQPEDIATYYCQQYDNLPITFGQGTRLEIK	90.9
C936 (antibody, V domains shown) VH: EVQLVESGGGLIQPGGSLRLSCAASGFTVSSNYMSWVRQAPGKGLEWVSVIYSGGSTFYADSVKGRFTISRDNSKNTLYLQMNSLRAEDTAVYYCARDLGTGLFDYWGQGTLVTVSS VL: DIQLTQSPSFLSASVGDRVTITCRASQGISSYLAWYQQKPGKAPKLLIYAASTLQSGVPSRFSGSGSGTEFTLTISSLQPEDFATYYCQQLDSYPPGTFGPGTKVDIK	667
C929 (antibody, V domains shown) VH: EVQLVESGGGLIQPGGSLRLSCAASGFTVSSNYMTWVRQAPGKGLEWVSVIYSGGTTYYADSVKGRFTISRDNSKNTLYLQMNSLRAEDTAVYYCARDLVVWGMDVWGQGTTVTVSS VL: DIQLTQSPSFLSASVGDRVTITCRASQGISSYLAWYQQKPGKAPKLLIYAASTLQSGVPSRFSGSGSGTEFTLTISSLQPEDFATYYCQLLNSYPYTFGQGTKLEIK	0.127
C930 (antibody, V domains shown) VH: EVQLVESGGGLFQPGGSLRLACAASGITVSSNYMSWVRQPPGKGLEWVSVIYAGGSTFYADSVKGRLTISRDNSKNTLYLQINSLRAEDTAVYYCARDLVVWGMDVWGQGTTVTVSS VL: DIQLTQSPSFLSASVGDRVTITCRASQGISSYLAWYQQKPGKAPKLLIYAASTLQSGVPSRFSGSGSGTEFTLTISSLQPEDFATYYCQQLNTYPYTFGQGTKLEIK	0.323
C937 (antibody, V domains shown) VH: EVQLVESGGGLIQPGGSLRLSCAASELTVSSNYMSWVRQAPGKGLEWVSVIYPGGSTFYADSVKGRFTISRDNSKNTLYLQMNSLRAEDTAVYYCARDLGTGLFDYWGQGTLVTVSS VL: DIQLTQSPSFLSASVGDRVTITCRASQGISSYLAWYQQKPGKAPKLLIYAASTLQSGVPSRFSGSGSGTEFTLTISSLQPEDFATYFCQLLNSNPPGTFGPGTKVDIK	3.03
C916 (antibody, V domains shown) VH: EVQLVESGGGLVQPGGSLRLSCAASGFTFSNYDMHWVRQATGRGLEWVSTIGTAGDTYYPGSVKGRFTISRENAKNSLYLQMNSLRAGDTALYYCARVRYDSSGYFWSLDYWGQGTLVTVSS VL: not shown	3.45
C917 (antibody, V domains shown) VH: EVQLVESGGGLVQPGGSLRLSCAASGFTFSNYDMHWVRQATGKGLDWVSTIGTAGDTYYPGSVKGRFTISRENAKNSLYLQMNSLRAGDTAVYYCARVRFDTSGYFWSLDYWGQGTLVTVSS VL: not shown	0.101
C889 (antibody, V domains shown) VH: EVQLVESGGGLVQPGGSLRLSCAVSGFTVSSNYMTWVRQAPGKGLEWVSLIYSGTSAFYADSVKGRFTISRDNSKNTLYLQMSSLRVNDTAIYYCARDLRKDDGYSYGAFDYWGQGTLVTVSS VL: QSALTQPASVSGSPGQSITISCSGTSSDVGAHNYVSWYQQYPGKAPKLMIFDVTDRPSGVSNRFSGSKSGNTASLTISGLQAEDEADYYCTSYTTNRSWVFGGGTKVTVL	4.17
